Test results published in publication PMC8561297.

Assays:
[1] = target: von Willebrand factor (human (endogenous in whole blood)) (UniProt P04275)
[2] = target: von Willebrand factor (human (endogenous in whole blood)) (UniProt P04275); remark: listed apart in the source

share of slow-rolling platelets at constant shear [1]: 36%
share of slow-rolling platelets at shear rate gradient [1]: 52.9%
platelet adhesion at the stenosis apex, control (platelets/mm^2) [2]: 3930
platelet adhesion in the stenosis outlet, control (platelets/mm^2) [2]: 5040
platelet rolling velocity at the stenosis apex, control [2]: 4.41 μm s^-1
platelet rolling velocity at the stenosis apex, with scFv A1 [2]: 4.6 μm s^-1
Substance: platelet GPIbα (from UniProt P07359 17-652) (receptor)
